Test results published in publication PMC2950225.

Target: T1, heat shock factor 1 (human (endogenous in HepG2)), Q00613
T1 chain: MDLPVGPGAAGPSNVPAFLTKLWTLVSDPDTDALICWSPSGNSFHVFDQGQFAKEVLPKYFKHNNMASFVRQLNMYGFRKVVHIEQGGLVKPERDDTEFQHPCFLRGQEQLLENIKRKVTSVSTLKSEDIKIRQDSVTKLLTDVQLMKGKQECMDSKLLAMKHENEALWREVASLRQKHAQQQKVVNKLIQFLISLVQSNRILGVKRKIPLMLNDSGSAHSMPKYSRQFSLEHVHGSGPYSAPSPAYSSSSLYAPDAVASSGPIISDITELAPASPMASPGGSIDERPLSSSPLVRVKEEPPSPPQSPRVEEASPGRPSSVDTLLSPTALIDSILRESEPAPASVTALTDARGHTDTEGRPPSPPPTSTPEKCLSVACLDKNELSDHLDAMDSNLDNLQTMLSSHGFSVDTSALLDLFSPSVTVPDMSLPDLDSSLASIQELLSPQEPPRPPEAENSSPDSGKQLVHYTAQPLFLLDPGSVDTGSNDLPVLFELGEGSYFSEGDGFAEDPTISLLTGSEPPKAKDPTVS
Assay: cross-linking
Conditions: remark: other sources report otherwise

B1: heat shock factor 1, Q00613 1-529 (natural protein)
chain: T1 chain
B1 gave a stoichiometry N of 3.
